Measured values: PMC3121171 (Forum on immunopathological diseases and therapeutics, 2011)

Target: T1, Purified recombinant human GRK2 (G protein-coupled receptor kinase 2) (human, UniProt P25098 1-689)
T1 sequence (looked up): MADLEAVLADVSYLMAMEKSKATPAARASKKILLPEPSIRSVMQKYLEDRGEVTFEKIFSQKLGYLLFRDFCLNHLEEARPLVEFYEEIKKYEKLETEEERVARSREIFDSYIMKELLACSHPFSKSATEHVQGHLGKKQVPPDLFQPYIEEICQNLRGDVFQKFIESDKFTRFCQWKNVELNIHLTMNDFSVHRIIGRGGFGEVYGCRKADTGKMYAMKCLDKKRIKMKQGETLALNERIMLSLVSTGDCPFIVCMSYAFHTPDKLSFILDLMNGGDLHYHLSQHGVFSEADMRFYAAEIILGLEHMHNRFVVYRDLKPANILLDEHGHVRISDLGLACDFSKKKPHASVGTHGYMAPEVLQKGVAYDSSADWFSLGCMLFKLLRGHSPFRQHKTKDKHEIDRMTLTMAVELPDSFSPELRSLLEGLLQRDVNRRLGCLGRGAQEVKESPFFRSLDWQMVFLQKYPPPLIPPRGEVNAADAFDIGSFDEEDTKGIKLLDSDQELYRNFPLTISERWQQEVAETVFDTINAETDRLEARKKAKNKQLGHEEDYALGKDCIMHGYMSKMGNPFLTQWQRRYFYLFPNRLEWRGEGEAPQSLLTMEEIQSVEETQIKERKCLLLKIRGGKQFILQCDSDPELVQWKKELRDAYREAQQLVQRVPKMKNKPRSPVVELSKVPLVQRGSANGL
Experiment: pull-down

B1: His-tagged human RKIP-1/PEBP-1 (Raf kinase inhibitor protein) (natural protein)
chain: MPVDLSKWSGPLSLQEVDEQPQHPLHVTYAGAAVDELGKVLTPTQVKNRPTSISWDGLDSGKLYTLVLTDPDAPSRKDPKYREWHHFLVVNMKGNDISSGTVLSDYVGSGPPKGTGLHRYVWLVYEQDRPLKCDEPILSNRSGDHRGKFKVASFRKKYELRAPVAGTCYQAEWDDYVPKLYEQLSGK
  binding result: binds
